Legend:
Type in all cases: biochemical, Quillaja saponaria
[1] = Experiment 6-1: screening of rhamnosidases for derhamnosylation of saponins in treated bark extract (2%), QS-17 2310 to QS-18 2164 (PAR %); conditions: TBE 2%, pH 7.5, 30 degC, 18 h; TIC peak area ratio percent, LCMS/MS; negative controls 3.061, 2.429
[2] = Experiment 6-1: screening of rhamnosidases for derhamnosylation of saponins in treated bark extract (2%), QS-17 2296 to QS-18 2150 (PAR %); conditions: TBE 2%, pH 7.5, 30 degC, 18 h; TIC peak area ratio percent of rhamnosylated starting saponin to derhamnosylated product, LCMS/MS; negative controls 4.876, 5.225
[3] = Experiment 6-1: screening of rhamnosidases for derhamnosylation of saponins in treated bark extract (2%), desglucosyl-QS-17 2134 to QS-21 1988 (PAR %); conditions: TBE 2%, pH 7.5, 30 degC, 18 h; TIC peak area ratio percent, LCMS/MS; negative controls 2.719, 2.158
[4] = Experiment 6-1: specificity of rhamnosidases towards other rhamnose residues (C3 saccharide rhamnose, C28 saccharide rhamnose); conditions: TBE 2%, pH 7.5, 30 degC, 18 h; LCMS/MS; negative controls 0.18, 0.17

Row | Molecule | Peak57 (PAR %) [1] [%] | QS-17 (PAR %) [2] [%] | Peak75 (PAR %) [3] [%] | ratio PP/QS-21 [4]
1 | 1080 (protein, listed as Eisenbergiella massiliensis) MANWIWYPGDFEIYHGMCQNFDREERGFFWPAYWHIADCRHHVVFHASCRLEKETAFRVTAKGIGHVLVKWEEKAPSWFPEGQPFYQEKKYTIGEWISCPAKEIGIDVVIGNRTGLPCIYVEGEVIRSGKNWTVTDFAAPEVPVGWNDMYVRAQQDPQIFEYTQELCRPVSTERVNGGVLYDFGRELTADTLIKINGEERPDQVTLCYGESRTEALDTQLCYLKQVLEIPGKKDSVPAGCASGPEREADCGASPFGRWESGQRYHTKLRAFRYIFVPEGENASLVTVEALYKYVDFPKRSSFSCSDGLINRIWEVADTTFRLASGIFFLDGVKRDRWIWSGDAYQSYFINQYLFFDKDICKRTILALRGNDPVTEHINTIVDYSMYWIISLENYYNMSGDLDFIRMVYPRMESLLRYCMEQTDGQGFIYGREGDWIYIDWAELDKEGILCAEQQLLARSYEAVASVRRLLGLDAEEFDVRKEALLKNIRQFFWDEEKGAFIDSYQSGRRNVTRHANIFAVLFGYADEAETESILHKVLLNEEVAAITTPYFKFYELEALAKLGRFEVVMDTLKSYWGGMLERGADTFWEEYKPEQPEEEQYGMYGDKYGKSLCHAWGASPIYLLGRYCMGVRPTGTAYETFAVEPQLELFDSFSCSFPVNEGTVWMDWKDGVLDVYTDKDGGVLKAAGKEYTLERGKHVVVKGR | 2.882 | 4.792 | 2.434 | 0.17
2 | 1010 (protein, listed as Paenibacillus mucilaginosus) MEENRLWNARWIWHQSYPWTSDPGTHEMVWFRREFDVTDPHLAQLVVDISADSRYRLFLNGDSVSVGPCKGDRSTHYYETVDLSERLIAGTNVLAAQVLHFAPSGPHLLGVSGPLSIHRAVSGAMFLEGVLIEGNGHSQTLHSDEKWLCKKMPGFKLVPSPIIFFLGGFEDTDGSGLDHGWELPGYDDEGWTNAVIVCETGDKFGQLTPWQLAPRPIPPMREEPASFRGITKADDRAAIPGYEAMLRGGDTRSVRVEAGQSIWLELDAGELVTGYVTLKLRGGRESRIKLLYAESYEEPASNLHHRVKGIRDDAENGILLGEADHYTVAGVGIGESVERYEPFDFRTFRYLRLEAAAKDEPLEIVLLSYRDTGYPLNAQAAFSCSDPDYAALWELSLKTLRRCMHETYEDCPYYEQLQYTMDTRLQMMFTYAVSADDRLARRALFDYHSSALPSGMLQSRYPSEYRQVIPSFSLYWIHMLYEHYWHFGDRELIRRYVPTMTGVLGWFRRMLTPEGLVAPTPRAYWPYFDWCIDWENGTPPAHAKGPLTLLSQMLAAALQTASQIYEAVGWSDAAREAKADANAVNEALLRLCWRPERGLFADGPEVEEFSQHAQVWGVVCGAVQGEDAVRLLERTIEPQAEHMAQLSVPASYELFRMLSRHGLYGKASNVIDRWKAFLHLHLTTLPEVTDDNHPRSDCHAWSALPLSEFTGEILGVRPGAPGYSEIIVSPQPLQLSWAKGSAATRHGSVEVEWTLDEEAVFRMSGNGPVGIPLLVVLPNGKQVEFRHGGKFEASAKLRA | 2.845 | 4.796 | 2.559 | 0.18
3 | 1035 (protein, listed as Caulobacter segnis) MVKAYRPSLVLVLALAFGPAASAEPIWITHPAAPSAPTVVRFERDLTLARKPGHFPVRVSADNRFILLVNGRRVGAGPATSDLGHWRYATLDLAPYLTRGSNHLEAVVWNYVKPEEPIPDGLSPAQKNAAAFRNQRNQTGPVAQISARLGFWFSAPGAPELDSGPTWRVQLDSARSAAPVMGQVAGFYAAGPSEIVDARVPLAAPVAATPALAPGEPSPWALSADPLPQMSYRAVDPGLVARTNLDEAKAFPRQPVTIPARKTVKILLARPAMVAAYPTLRVTGGKDASIKLTYAEALIDAKGRKGLRSEVGDRTIRGLSDRFTADGGARAFAPLWWRTWRYLEIEVQTADQPLRLQGLDVAETDYPFGQVGKFVSDDPELNRIWDIGWRTARIDAHETYMDTAYYEQLQYVGDTRLQALISYAVSGDPRLATQAMDAFGASRALGGVTEGAYPSRTSNPIPPFSLLWIGMLHDYWSRHPDPEPARRHLARAREVLAWFDGYLGPDGLMRKTPGWSFVDWAVKDGRLLSRDAFPSYDAQGRSCLLSLAYLGALRDMTDLEAALGEPSLAGRDRSRAEAIAAAVRDQCWAPDRGLFADTPDKASFSQHTNALAVLYDVAAPKDAAAILDRTVGQAGIDAPTGMISTSYYYAWYLVRAFDHAGQADRYLSLLDTWRGLLALDYTTWPEERGNTRSDTHAWSAHPTADLLELVAGIRPDAPGYGRLRVEPHLGALRRLDAAAATPQGPVEVKYRRKGQRLVVEVRKPAGLSGVFVWRGQSHALLGARTRLDLPAGD | 2.987 | 4.825 | 2.427 | 0.17
4 | 1034 (protein, listed as Paenibacillus mucilaginosus) MSSTQTLRGRFDDPPAEYRAAPFWAWNDALREEEVLRQIGEMKEGGMGGFFIHSRDGLETEYMGTEWMKLVRAAVEEAEAQGMQAWLYDEDRWPSGFAGGLVQARGGDDYRAKGLTLEVVPAEKEGSGRLAERLADGAPVALFRAVIAERSLLSCTRLDLQVMFGSRMEAAAAAENTLLPPILEPQQEQHQDHETVYLLFRVEVSERSEWFNGEAPPDNLNPDTVRTFIELTYEAYEREVGGSFGSAVRGVFTDEPSIHDRHCRFTPGRAWLPWSGSFPAFYRERRGSDVLDTAPYLFFDGSLSPQARHDYWRTVTERFSEAYSGQIGEWCGSRGLAFTGHYLWENNLGTATRVCGAVMPNYRYQHVPGIDMLGEQTNETITVKQCTSVAHQYGRKVVLSETYGCTGWGFTFEGQRWVGDFQYVLGVNLRSQHLALYSIKGCRKRDYPPVFHYNTSWWKFSRVIEDYYARLSAVLTEGRPIRDVLVLHPSTTAWSMVGTGPYGFPARGKDRDVSAANRYGHEFNAFLRGLLGAHYDFDLGDEIILSEIGSVRQTEQTARLAVGMAEYRTVVLPEIRTMLRSTFLLLTGFLEAGGRVVAVGPPAELLEGRPAPELSRLYGHPGLTVVPDGAAAAAALESFLPRRVSIRHQAPQHTEPAEADKMLYMLQKADNRRVLFIVNNDREEEQQVTITLEGEGLLEEWNALTGEVTDVLVRRSQEGLLEFDASFGPADSKLYVLHTDRAPETGLNASPASEAPLLLVDPGTIRMELLQEPAGFTRTAPNALTLDRCSYRLRDGDWSGEMDVWQAQRAVREALGMRQVYGNGLEQRYRWVHEPHPGDGTPAAFRFDFEVTDVPEGEIHLVVESAGEYELGLNGNPVPGVPDGWFLDRSFDRVPLSGLRAGRNELVLSCRYHQRMEVEDLYLTGDFGVDEGRRITREPEKLQLGDWCLQGYPHYAGSMVYRFTVDGGLTPGGPAWLELGSFQAVTAEVRINRETAGHVPWRAANRLDISGRLRQGENLIEVEVMGSPRNLLGPFHHTSGDPSITSWSSFRKEGGDYSPAYRLRPYGLFGGIRLYRVQEQGGKGG | 3.034 | 4.827 | 2.389 | 0.17
5 | 1036 (protein, listed as Bacteroides cellulosilyticus) MNRYILFFFLILSTLTTLRAQQSRLVEVGNGYSQTSVNTTVFRNNSLVTQGDEQYISYYDGDGYLVLGKRKLDSDQWTLKRTQYKGNVKDAHNIISMMLDGEGYLHLSFDHHGHKLNYCRSTAPYTLELGDKEPMTGVDEGNVTYPEFYPLNGGDLLFVYRSGSSGRGNLVMNHYSVKEKKWNRVQDVLIDGEDQRNAYWQLYVDEQGTIHLSWVWRETWHVETNHDLCYARSYDNGVTWYKANGKKYDLPIRYNNAEYACRIPQNSELINQTSMSADASGNPYIATYWRDPDSEVPQYRIVWHDGQMWHNRQVSNRHTPFSLKGGGTKMIPIARPRIVVDGGEIFYIFRDEERGSRVSLAHAAAVGVGKWTFTDLTNFPVDAWEPSHDTELWKQKRRLHLFVQHTKQGDGERRVEFAPQPVYVLEVVKPKGD | 2.852 | 4.834 | 2.444 | 0.16

Source: patent US20240026407A1, “MODIFICATION OF SAPONINS” (GLAXOSMITHKLINE BIOLOGICALS SA, priority 2020, published 2024)
